Assay results: PMC10367348 (Journal of Biomedical Science, 2023)
Numbering of substitutions follows the chain as printed. Ends that are not written are not given here.

B1: scFv JU1 (scFv, V domains shown)
VH: EVQLLESGGGLVQPGGSLRLSCAASGFTFSSYAMSWVRQAPGKGLEWVSRISAQGNQTRYSDSVKGRFTISRDNSKNTLYLQMNSLRAEDTAVYYCAKKSSYFDYWGQGTLVTVSS
VL: DIQMTQSPSSLSASVGDRVTITCRASQSISSYLNWYQQKPGKAPKLLIYKASTLQSGVPSRFSGSGSGTDFTLTISSLQPEDFATYYCQQWRTRPLTFGQGTKVEIK
B2: scFv AU1 (scFv, V domains shown)
VH: EVQLLESGGGLVQPGGSLRLSCAASGFTFSSYAMSWVRQAPGKGLEWVSTILQHGQRTLYADSVKGRFTISRDNSKNTLYLQMNSLRAEDTAVYYCAKNRAVFDYWGQGTLVTVSS
VL: B1 VL with K50T, W91Y, T93Q, L96P
notes: also called AU1 scFv
B3: scFv GU1 (scFv, V domains shown)
VH: B2 VH with T50G, L52S, H54L, Q56G, R57Y, L59G, D62G, V102T
VL: B1 VL with K50A, T53H, W91S, R92Q, T93H, R94K
B4: scFv UU1 (scFv, V domains shown)
VH: B2 VH with L52S, Q53M, H54S, Q56K, L59Q, N99R, R100H, A101R, V102Y
VL: B1 VL with K50R, T53K, W91P, R92G, T93W, L96K

Assays:
[1] = molecular target: T1, matrix protein 2 [Influenza A virus (A/New York/392/2004(H3N2))] (Influenza A virus (A/New …, UniProt P0DOF5, strain)); experiment: flow cytometry on cells; settings: one partner purified
T1 construct: also called M2; M2 protein

[2] = molecular target: T2, biotinylated BSA conjugated peptide (influenza A virus, also: biotinylated, BSA conjugated); experiment: BLI
T2 peptide: KSLLTEVETPI

Row | Binder | binding result [1] | Kd [2]
1 | B1 | binds | 3610 nM
2 | B2 | binds | 940 nM
3 | B3 | binds | 350 nM
4 | B4 | binds | 8600 nM
